± gives the standard deviation of the averaged measurements.
How the values were obtained:
[1] = tested on: Saccharomyces cerevisiae; experiment: protein stability index of tFT-peptide fusion (C-terminal peptide) (PSI (0-1 scale)); higher = more stable (slower turnover)
Description: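 MPS profiling in S. cerevisiae of the tFT-X12 degron library: putative degron peptides plus stable controls, 12 aa, fused to the C-terminus of a sfGFP-mCherry timer. Cells are FACS-sorted into 8 mCherry/sfGFP bins and deep-sequenced. PSI runs from 0 (unstable) to 1 (stable). Backgrounds are wild type, das1Δ and doa10Δ at 30 °C, and wild type, das1Δ, cdc34-1 and cdc53-1 at 37 °C; 2-3 technical replicates each.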

[2] = tested on: Saccharomyces cerevisiae; experiment: as above; conditions: genetic background: wild type; temperature: 30 C
[3] = genetic background: cdc34-1, temperature: 37 C
[4] = genetic background: cdc53-1, temperature: 37 C
[5] = genetic background: das1 deletion, temperature: 30 C
[6] = genetic background: das1 deletion, temperature: 37 C
[7] = genetic background: doa10 deletion, temperature: 30 C
[8] = genetic background: wild type, temperature: 30 C
[9] = genetic background: wild type, temperature: 37 C
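Further: PSI is a weighted mean of sequencing reads over stability bins, variants kept only with over 10 reads, mCherry proximal and sfGFP distal, peptide attached via GGGS linker.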

| Sequence | protein stability index [1, 3] | protein stability index [1, 4] | protein stability index [1, 5] | protein stability index [1, 6] | protein stability index [1, 7] | protein stability index [1, 8] | protein stability index [1, 9] | protein stability index [2] |
| --- | --- | --- | --- | --- | --- | --- | --- | --- |
| PPPRSLSPPLLS | 0.642 ± 0.0076 | 0.7372 ± 0.0019 | 0.643 ± 0.025 | 0.704 ± 0.0013 | 0.6711 ± 0.0062 | 0.659 ± 0.014 | 0.681 ± 0.023 | 0.409 ± 0.0037 |
| PPRSRPLLRPLP | 0.699 ± 0.0037 | 0.726 ± 0.012 | 0.666 ± 0.022 | 0.7139 ± 0.0036 | 0.684 ± 0.033 | 0.684 ± 0.022 | 0.708 ± 0.025 | 0.746 ± 0.021 |
| PPSRVSIRLLIR | 0.446 ± 0.025 | 0.473 ± 0.0095 | 0.362 ± 0.021 | 0.461 ± 0.0062 | 0.374 ± 0.0089 | 0.371 ± 0.0086 | 0.448 ± 0.013 | 0.4017 ± 0.0039 |
| PRFLRWLFSLLI | 0.739 ± 0.039 | 0.704 ± 0.012 | 0.705 ± 0.015 | 0.769 ± 0.044 | 0.597 ± 0.0095 | 0.592 ± 0.014 | 0.739 ± 0.041 | 0.515 ± 0.032 |
| PRINTFVVVRVC | 0.102 ± 0.02 | 0.183 ± 0.015 | 0.216 ± 0.038 | 0.336 ± 0.013 | 0.0626 ± 0.015 | 0.0722 ± 0.018 | 0.0609 ± 0.0015 | 0.159 ± 0.042 |
| PSCLLVAPRFSS | 0.672 ± 0.036 | 0.745 ± 0.015 | 0.67 ± 0.022 | 0.712 ± 0.027 | 0.677 ± 0.014 | 0.694 ± 0.019 | 0.715 ± 0.0045 | 0.755 ± 0.017 |
| PSFSLLRSLTLI | 0.6084 ± 0.0024 | 0.7024 ± 0.0056 | 0.6712 ± 0.0021 | 0.699 ± 0.022 | 0.192 ± 0.02 | 0.205 ± 0.022 | 0.413 ± 0.027 | 0.284 ± 0.0073 |
| PTYTKYRTRQIN | 0.528 ± 0.066 | 0.745 ± 0.025 | 0.62 ± 0.011 | 0.7536 ± 0.0066 | 0.0947 ± 0.015 | 0.133 ± 0.04 | 0.156 ± 0.024 | 0.0994 ± 0.044 |
| PVILISWQLRCY | 0.018 ± 0.0019 | 0.0284 ± 0.0013 | 0.0318 ± 0.01 | 0.049 ± 0.011 | 0.0188 ± 0.0012 | 0.0174 ± 0.0032 | 0.0417 ± 0.0029 | 0.0229 ± 0.026 |
| PVPPRVNLLRVS | 0.619 ± 0.034 | 0.6641 ± 0.0053 | 0.542 ± 0.028 | 0.6735 ± 0.0053 | 0.215 ± 0.0024 | 0.263 ± 0.031 | 0.475 ± 0.011 | 0.3959 ± 0.0035 |
| PVWLSFHFFLCA | 0.426 ± 0.041 | 0.48 ± 0.011 | 0.369 ± 0.019 | 0.509 ± 0.013 | 0.321 ± 0.02 | 0.332 ± 0.017 | 0.469 ± 0.0063 | 0.44 ± 0.061 |
| QIDYSVYIFALG | 0.4309 ± 0.00032 | 0.493 ± 0.036 | 0.279 ± 0.03 | 0.4672 ± 0.0007 | 0.261 ± 0.0014 | 0.302 ± 0.023 | 0.454 ± 0.0065 | 0.371 ± 0.026 |
| QRFASFFFLHLS | 0.411 ± 0.069 | 0.504 ± 0.061 | 0.585 ± 0.012 | 0.6374 ± 0.0022 | 0.157 ± 0.028 | 0.142 ± 0.036 | 0.251 ± 0.011 | 0.227 ± 0.0046 |
| QRTNTIINKRIV | 0.704 ± 0.036 | 0.753 ± 0.016 | 0.623 ± 0.028 | 0.736 ± 0.012 | 0.478 ± 0.03 | 0.477 ± 0.028 | 0.705 ± 0.041 | 0.565 ± 0.096 |
| RALSLPPLLLVL | 0.386 ± 0.013 | 0.443 ± 0.038 | 0.319 ± 0.013 | 0.48 ± 0.011 | 0.338 ± 0.029 | 0.326 ± 0.029 | 0.4351 ± 0.0017 | 0.423 ± 0.023 |
| RCIFYHSPVLCL | 0.469 ± 0.022 | 0.515 ± 0.022 | 0.399 ± 0.023 | 0.51 ± 0.0089 | 0.365 ± 0.0064 | 0.398 ± 0.018 | 0.511 ± 0.041 | 0.449 ± 0.02 |
| RCQILSYCLLFV | 0.4186 ± 0.0033 | 0.42 ± 0.017 | 0.34 ± 0.025 | 0.477 ± 0.016 | 0.381 ± 0.025 | 0.33 ± 0.024 | 0.4523 ± 0.0013 | 0.407 ± 0.012 |
| RCSLRLRFIFVR | 0.0761 ± 0.024 | 0.0507 ± 0.018 | 0.128 ± 0.019 | 0.159 ± 0.0038 | 0.254 ± 0.024 | 0.104 ± 0.022 | 0.116 ± 0.0027 | 0.166 ± 0.0029 |
| RFFFASRYIECF | 0.181 ± 0.0096 | 0.173 ± 0.027 | 0.216 ± 0.014 | 0.354 ± 0.013 | 0.187 ± 0.0019 | 0.22 ± 0.036 | 0.281 ± 0.028 | 0.416 ± 0.11 |
| RFWFTFYLIAVF | 0.0612 ± 0.029 | 0.0779 ± 0.017 | 0.109 ± 0.031 | 0.203 ± 0.0098 | 0.0617 ± 0.016 | 0.0761 ± 0.023 | 0.163 ± 0.081 | 0.103 ± 0.0027 |

| Sequence | protein stability index [1, 3] | protein stability index [1, 4] | protein stability index [1, 5] | protein stability index [1, 6] | protein stability index [1, 7] | protein stability index [1, 8] | protein stability index [1, 9] | protein stability index [2] |
| --- | --- | --- | --- | --- | --- | --- | --- | --- |
| RGWGGGTWVKMG | 0.592 ± 0.011 | 0.72324 ± 0.00012 | 0.664 ± 0.018 | 0.767 ± 0.013 | 0.113 ± 0.019 | 0.121 ± 0.015 | 0.203 ± 0.004 | 0.3012 ± 0.0016 |
| RGYSAIWGCKMN | 0.619 ± 0.097 | 0.742 ± 0.045 | 0.654 ± 0.0072 | 0.74 ± 0.011 | 0.184 ± 0.021 | 0.228 ± 0.018 | 0.529 ± 0.077 | 0.3812 ± 0.0021 |
| RIIDRVSRLIML | 0.765 ± 0.026 | 0.826 ± 0.019 | 0.689 ± 0.034 | 0.765 ± 0.015 | 0.453 ± 0.021 | 0.482 ± 0.034 | 0.627 ± 0.032 | 0.543 ± 0.089 |
| RKFRAWIRITRT | 0.627 ± 0.042 | 0.725 ± 0.031 | 0.635 ± 0.022 | 0.71526 ± 0.00022 | 0.219 ± 0.01 | 0.247 ± 0.048 | 0.471 ± 0.025 | 0.377 ± 0.013 |
| RLCKGQKYTKIN | 0.597 ± 0.014 | 0.718 ± 0.02 | 0.659 ± 0.023 | 0.707 ± 0.034 | 0.0852 ± 0.02 | 0.105 ± 0.026 | 0.155 ± 0.043 | 0.105 ± 0.015 |
| RLRWLSPMTHVG | 0.634 ± 0.013 | 0.7337 ± 0.0061 | 0.666 ± 0.025 | 0.726 ± 0.024 | 0.263 ± 0.0086 | 0.286 ± 0.016 | 0.5802 ± 0.0019 | 0.463 ± 0.012 |
| RLSGACILLSLV | 0.634 ± 0.045 | 0.694 ± 0.015 | 0.553 ± 0.03 | 0.681 ± 0.0082 | 0.217 ± 0.0063 | 0.259 ± 0.022 | 0.439 ± 0.026 | 0.388 ± 0.081 |
| RLSLCLAVLFLV | 0.433 ± 0.062 | 0.574 ± 0.035 | 0.564 ± 0.035 | 0.6468 ± 0.0032 | 0.116 ± 0.0062 | 0.126 ± 0.0059 | 0.146 ± 0.009 | 0.205 ± 0.035 |
| RPSHTSVYRLLH | 0.553 ± 0.061 | 0.677 ± 0.054 | 0.655 ± 0.045 | 0.706 ± 0.019 | 0.114 ± 0.019 | 0.148 ± 0.0086 | 0.337 ± 0.17 | 0.2545 ± 0.0022 |
| RRLAVWCDFRSL | 0.684 ± 0.054 | 0.75155 ± 0.00053 | 0.663 ± 0.018 | 0.7472 ± 0.00055 | 0.416 ± 0.0061 | 0.454 ± 0.035 | 0.653 ± 0.0095 | 0.45 ± 0.012 |
| RRPVHTHTSVSP | 0.7449 ± 0.00016 | 0.742 ± 0.05 | 0.652 ± 0.026 | 0.733 ± 0.0094 | 0.658 ± 0.022 | 0.6561 ± 0.0035 | 0.701 ± 0.012 | 0.606 ± 0.25 |
| RRRGIYARASVV | 0.636 ± 0.018 | 0.728 ± 0.019 | 0.647 ± 0.019 | 0.723 ± 0.017 | 0.249 ± 0.0044 | 0.276 ± 0.043 | 0.434 ± 0.023 | 0.382 ± 0.015 |
| RSITFFPVCLVK | 0.316 ± 0.079 | 0.389 ± 0.06 | 0.293 ± 0.029 | 0.491 ± 0.014 | 0.253 ± 0.021 | 0.289 ± 0.018 | 0.426 ± 0.013 | 0.382 ± 0.016 |
| RSLSFGMVLCYS | 0.358 ± 0.027 | 0.366 ± 0.0079 | 0.248 ± 0.041 | 0.4382 ± 0.0025 | 0.228 ± 0.012 | 0.253 ± 0.028 | 0.401 ± 0.012 | 0.343 ± 0.029 |
| RSLSWCTKRRCC | 0.595 ± 0.044 | 0.7011 ± 0.0057 | 0.675 ± 0.016 | 0.71892 ± 0.00035 | 0.221 ± 0.015 | 0.226 ± 0.022 | 0.454 ± 0.013 | 0.3718 ± 0.00091 |
| RSSGHLLDGRAF | 0.697 ± 0.03 | 0.739 ± 0.011 | 0.64 ± 0.02 | 0.752 ± 0.011 | 0.631 ± 0.029 | 0.654 ± 0.021 | 0.7353 ± 0.0026 | 0.539 ± 0.096 |
| RVGGVVVLGCVG | 0.645 ± 0.03 | 0.711 ± 0.02 | 0.549 ± 0.013 | 0.684 ± 0.02 | 0.555 ± 0.027 | 0.5598 ± 0.0053 | 0.67072 ± 0.0004 | 0.476 ± 0.0028 |
| RVGYSIIIIGIE | 0.351 ± 0.026 | 0.433 ± 0.087 | 0.312 ± 0.042 | 0.48295 ± 0.00022 | 0.244 ± 0.0084 | 0.303 ± 0.019 | 0.457 ± 0.029 | 0.354 ± 0.0038 |
| RVWIVCYHVSSY | 0.214 ± 0.016 | 0.3264 ± 0.00073 | 0.204 ± 0.024 | 0.371 ± 0.011 | 0.196 ± 0.0097 | 0.207 ± 0.0069 | 0.349 ± 0.022 | 0.262 ± 0.076 |

Reference: the supplement of paper PMC10724198
